Target: Hydrophobin-BMP2 fusion protein (UniProt P12643)
Experiment: SDS-PAGE and Western blot

## Hydrophobin-BMP2 fusion protein (from UniProt P12643 283-396)
  stoichiometry N: 2

Source: article PMC8193172
